Data as given in patent publication US20080181886A1 (Genentech, published 2008).

biological target: T1, Murine APRIL (mouse, UniProt Q9D777 105-241, limits assumed); assay: NNS library, phage display;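 also: ligand versus display occurrence-to-degeneracy ratio and higher means enriched by binding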
T1 sequence (looked up): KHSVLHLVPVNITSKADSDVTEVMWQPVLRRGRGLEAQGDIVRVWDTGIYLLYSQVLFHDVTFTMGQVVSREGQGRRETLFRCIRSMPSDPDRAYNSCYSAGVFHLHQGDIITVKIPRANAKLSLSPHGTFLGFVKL
Procedure: (§1) This new phage library was subjected to sorting against either BAFF, APRIL or the display target antibody. After 3 rounds of sorting, approximately 48 clones were picked from each selection and the DNA sequences of the phage clones were determined. […] The normalized F′ value corrects for display bias and is calculated as the percent occurrence to percent degeneracy ratio for ligand selection divided by the percent occurrence to percent degeneracy ratio for display efficiency. Percent occurrence is calculated by dividing the number of times a particular amino acid appeared at a particular position by the total number of amino acids sequenced at that position followed by multiplying by 100. Percent degeneracy is calculated by dividing the degeneracy in code for a particular amino acid divided by the total degeneracy possible at that position followed by multiplying by 100 (e.g., if only A, G and I were selected, total degeneracy possible would be 5).

Binder	F' APRIL
SLSCRKEQGKAYDHLLRDCISCASICGQHPKQCAYFCENKLR (receptor, phage library variant, format as m9) [TACI_d2 F78A]	0
SLSCRKEQGKFYDHLLADCISCASICGQHPKQCAYFCENKLR (receptor, phage library variant, format as m9) [TACI_d2 R84A]	2
SLSCRKEQGKVYDHLLRDCISCASICGQHPKQCAYFCENKLR (receptor, phage library variant, format as m9) [TACI_d2 F78V]	1
SLSCRKEQGKSYDHLLRDCISCASICGQHPKQCAYFCENKLR (receptor, phage library variant, format as m9) [TACI_d2 F78S]	0
SLSCRKEQGKFYDHLLRDCISCASACGQHPKQCAYFCENKLR (receptor, phage library variant, format as m9) [TACI_d2 I92A]	0
SLSCRKEQGKFADHLLRDCISCASICGQHPKQCAYFCENKLR (receptor, phage library variant, format as m9) [TACI_d2 Y79A]	0

biological target: T2, human BAFF (human, UniProt Q9Y275 82-285, limits assumed); assay: NNS library, phage display;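 also: ligand versus display occurrence-to-degeneracy ratio and higher means enriched by binding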
T2 sequence (Q9Y275 82-285 limits assumed): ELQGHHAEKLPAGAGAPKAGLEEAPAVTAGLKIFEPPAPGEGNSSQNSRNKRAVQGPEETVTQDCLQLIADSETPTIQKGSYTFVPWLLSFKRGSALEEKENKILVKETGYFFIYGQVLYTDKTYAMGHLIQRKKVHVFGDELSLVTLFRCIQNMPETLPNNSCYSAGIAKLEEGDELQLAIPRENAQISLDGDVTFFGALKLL
Procedure: as §1

Binder	F' BAFF
SLSCRKEQGKAYDHLLRDCISCASICGQHPKQCAYFCENKLR (receptor, phage library variant, format as m9) [TACI_d2 F78A]	0
SLSCRKEQGKFYDHLLADCISCASICGQHPKQCAYFCENKLR (receptor, phage library variant, format as m9) [TACI_d2 R84A]	3
SLSCRKEQGKVYDHLLRDCISCASICGQHPKQCAYFCENKLR (receptor, phage library variant, format as m9) [TACI_d2 F78V]	1
SLSCRKEQGKSYDHLLRDCISCASICGQHPKQCAYFCENKLR (receptor, phage library variant, format as m9) [TACI_d2 F78S]	0
SLSCRKEQGKFYDHLLRDCISCASACGQHPKQCAYFCENKLR (receptor, phage library variant, format as m9) [TACI_d2 I92A]	0
SLSCRKEQGKFADHLLRDCISCASICGQHPKQCAYFCENKLR (receptor, phage library variant, format as m9) [TACI_d2 Y79A]	0

biological target: T1, Murine APRIL; assay: shotgun scan, phage display
Description: (§2) Phage from each of the libraries described above were subjected to rounds of binding selection against APRIL, BAFF, or anti-tag antibody (3C8:2F4 Genentech, Inc.) immobilized on 96-well Nunc Maxisorp immunoplates (Sidhu, 2001). BSA-coated wells were used to determine non-specific background binding. Phage eluted from each target were propagated in E. coli XL1-Blue in the presence of M13K07 helper phage; amplified phage were used for selection against the same target in the […] round. […] Enrichment was calculated from the ratio of the phage titer eluted from the target-coated wells to the phage titer eluted from the BSA-coated wells. Individual clones from each library and selection target were then grown in a 96-well format in 400 ul of 2YT medium supplemented with carbenicillin and KO7 helper phage. […] Sequences of acceptable quality were translated and aligned. For APRIL-binding, 71, 40, and 54 sequences were analyzed from libraries one, two and three, respectively. For BAFF-binding, 70, 50, and 53 sequences were analyzed for libraries one, two and three, respectively. For the display selection, a minimum of 47 sequences were analyzed for each library. […] F values describe the effect of mutation on target binding, while accounting for differences in display efficiencies, with values >1 representing deleterious mutations and those <1 representing favorable mutations.

Binder	F (APRIL)
SLSCRKEQGKAYDHLLRDCISCASICGQHPKQCAYFCENKLR (receptor, phage library variant, format as m9) [TACI_d2 F78A]	29
SLSCRKEQGKFYDHLLRDCVSCASICGQHPKQCAYFCENKLR (receptor, phage library variant, format as m9) [TACI_d2 I87V]	1.4
SLSCRKEQGKFYDHLLRDCISCASICGQHPKQCAYFCENTLR (receptor, phage library variant, format as m9) [TACI_d2 K107T]	1.1
SLSCRKEQGKFYDHPLRDCISCASICGQHPKQCAYFCENKLR (receptor, phage library variant, format as m9) [TACI_d2 L82P]	> 49
SLSCRKEQGKFYDHLLRDCISCASICAQHPKQCAYFCENKLR (receptor, phage library variant, format as m9) [TACI_d2 G94A]	34
SLSCRKEQGKFYDHLLRDCISCASICGQHPKQCAYFCENKLP (receptor, phage library variant, format as m9) [TACI_d2 R109P]	1.2
SLSCRKEQGKFYDHLLRDCISCASICGQHPKQCAYFCENALR (receptor, phage library variant, format as m9) [TACI_d2 K107A]	0.9
SLSCRKAQGKFYDHLLRDCISCASICGQHPKQCAYFCENKLR (receptor, phage library variant, format as m9) [TACI_d2 E74A]	0.7
SLSCRKEQGKFYDHLLRDCISCASICGQHPKQCAYFCETKLR (receptor, phage library variant, format as m9) [TACI_d2 N106T]	1.6
SLSCRKEQGEFYDHLLRDCISCASICGQHPKQCAYFCENKLR (receptor, phage library variant, format as m9) [TACI_d2 K77E]	1.4
SLSCRKEQGKFYDHLLRACISCASICGQHPKQCAYFCENKLR (receptor, phage library variant, format as m9) [TACI_d2 D85A]	0.5
SLSCRKEQGKFYDHLLADCISCASICGQHPKQCAYFCENKLR (receptor, phage library variant, format as m9) [TACI_d2 R84A]	1.1
SLSCRKEEGKFYDHLLRDCISCASICGQHPKQCAYFCENKLR (receptor, phage library variant, format as m9) [TACI_d2 Q75E]	0.7
SLSCGKEQGKFYDHLLRDCISCASICGQHPKQCAYFCENKLR (receptor, phage library variant, format as m9) [TACI_d2 R72G]	0.6
SLSCRKEAGKFYDHLLRDCISCASICGQHPKQCAYFCENKLR (receptor, phage library variant, format as m9) [TACI_d2 Q75A]	1.4
SLSCRKEQGKFYDHLLRDCISCASICGQHPKECAYFCENKLR (receptor, phage library variant, format as m9) [TACI_d2 Q99E]	1.6
SLSCRKEQGKFYAHLLRDCISCASICGQHPKQCAYFCENKLR (receptor, phage library variant, format as m9) [TACI_d2 D80A]	> 43
SLSCRKEQGKVYDHLLRDCISCASICGQHPKQCAYFCENKLR (receptor, phage library variant, format as m9) [TACI_d2 F78V]	5.2
SLSCRKEQGKSYDHLLRDCISCASICGQHPKQCAYFCENKLR (receptor, phage library variant, format as m9) [TACI_d2 F78S]	> 66
SLSCRKEQGKFYDHLLRDCISCASACGQHPKQCAYFCENKLR (receptor, phage library variant, format as m9) [TACI_d2 I92A]	11
SLSCRKEQGKFADHLLRDCISCASICGQHPKQCAYFCENKLR (receptor, phage library variant, format as m9) [TACI_d2 Y79A]	> 21

biological target: T2, human BAFF; assay: shotgun scan, phage display
Description: as §2

Binder	F (BAFF)
SLSCRKEQGKAYDHLLRDCISCASICGQHPKQCAYFCENKLR (receptor, phage library variant, format as m9) [TACI_d2 F78A]	1.1
SLSCRKEQGKFYDHLLRDCVSCASICGQHPKQCAYFCENKLR (receptor, phage library variant, format as m9) [TACI_d2 I87V]	1.1
SLSCRKEQGKFYDHLLRDCISCASICGQHPKQCAYFCENTLR (receptor, phage library variant, format as m9) [TACI_d2 K107T]	1.1
SLSCRKEQGKFYDHPLRDCISCASICGQHPKQCAYFCENKLR (receptor, phage library variant, format as m9) [TACI_d2 L82P]	> 61
SLSCRKEQGKFYDHLLRDCISCASICAQHPKQCAYFCENKLR (receptor, phage library variant, format as m9) [TACI_d2 G94A]	10
SLSCRKEQGKFYDHLLRDCISCASICGQHPKQCAYFCENKLP (receptor, phage library variant, format as m9) [TACI_d2 R109P]	1.2
SLSCRKEQGKFYDHLLRDCISCASICGQHPKQCAYFCENALR (receptor, phage library variant, format as m9) [TACI_d2 K107A]	1.1
SLSCRKAQGKFYDHLLRDCISCASICGQHPKQCAYFCENKLR (receptor, phage library variant, format as m9) [TACI_d2 E74A]	0.6
SLSCRKEQGKFYDHLLRDCISCASICGQHPKQCAYFCETKLR (receptor, phage library variant, format as m9) [TACI_d2 N106T]	1.2
SLSCRKEQGEFYDHLLRDCISCASICGQHPKQCAYFCENKLR (receptor, phage library variant, format as m9) [TACI_d2 K77E]	0.9
SLSCRKEQGKFYDHLLRACISCASICGQHPKQCAYFCENKLR (receptor, phage library variant, format as m9) [TACI_d2 D85A]	0.8
SLSCRKEEGKFYDHLLRDCISCASICGQHPKQCAYFCENKLR (receptor, phage library variant, format as m9) [TACI_d2 Q75E]	0.7
SLSCGKEQGKFYDHLLRDCISCASICGQHPKQCAYFCENKLR (receptor, phage library variant, format as m9) [TACI_d2 R72G]	0.4
SLSCRKEAGKFYDHLLRDCISCASICGQHPKQCAYFCENKLR (receptor, phage library variant, format as m9) [TACI_d2 Q75A]	0.9
SLSCRKEQGKFYDHLLRDCISCASICGQHPKECAYFCENKLR (receptor, phage library variant, format as m9) [TACI_d2 Q99E]	0.8
SLSCRKEQGKFYAHLLRDCISCASICGQHPKQCAYFCENKLR (receptor, phage library variant, format as m9) [TACI_d2 D80A]	> 42
SLSCRKEQGKVYDHLLRDCISCASICGQHPKQCAYFCENKLR (receptor, phage library variant, format as m9) [TACI_d2 F78V]	0.8
